Test results from publication PMC5386341 (Blood Cancer Journal, 2017).

Legend:
human CD47 [1] = biological target: T1, human CD47 (human, UniProt Q08722); experiment: not stated; binding affinity of IgG2σ mAbs to human and cynomolgus monkey CD47; method is described only in the Supplementary section
T1 construct: CD47, human; the methods are in the Supplementary section; also called integrin-associated protein

cynomolgus monkey CD47 [2] = biological target: T2, cynomolgus monkey CD47 (Macaca fascicularis, UniProt A0A2K5X4I2); experiment: as above
T2 construct: CD47, cynomolgus monkey; also called cyno CD47

human CD47 [3] = biological target: T3, human CD47 (human, UniProt Q08722); experiment: not stated; binding affinity of IgG2σ mAbs to human and cyno CD47; the method stands in the Supplementary Information, not shown
T3 construct: CD47, human; The crystal structures used the human CD47 extracellular domain with a C15G mutation; also called integrin-associated protein

cynomolgus monkey CD47 [4] = biological target: T4, cynomolgus monkey CD47 (Macaca fascicularis, UniProt A0A2K5X4I2); experiment: as above
T4 construct: CD47, cynomolgus monkey; also called cyno CD47

B1: IgG2σ C47B161 (antibody, V domains shown)
VH: QVQLVQSGAEVKKPGASVKVSCKASGYTFTDYNMHWVRQAPGQRLEWMGDIYPYNGGTGYNQKFKGRVTITRDTSASTAYMELSSLRSEDTAVYYCARGGWHAMDSWGQGTLVTVSS
VL: DIVMTQSPLSLPVTPGEPASISCRSRQSIVHTNRYTYLAWYLQKPGQSPQLLIYKVSNRFSGVPDRFSGSGSGTDFTLKISRVEAEDVGVYYCFQGSHVPYTFGGGTKLEIK
notes: Human IgG2σ (effector function silent Fc)
B1 gave a Kd (human CD47 [1]) of 2.87 nM and a Kd (cynomolgus monkey CD47 [2]) of 2.96 nM.

B2: IgG2σ C47B222 (antibody, V domains shown)
VH: EVQLVQSGAEVKKPGESLKISCKGSGYSFTDYWIGWVRQMPGKGLEWMGIIYPGDSDTRYSPSFQGQVTISADKSISTAYLQWSSLKASDTAVYYCARVGRFASHQLDYWGQGTLVTVSS
VL: EIVLTQSPATLSLSPGERATLSCRASQSVNNRLAWYQQKPGQAPRLLIHWASTRAIGIPARFSGSGSGTDFTLTISSLEPEDFAVYYCQQGASWPFTFGQGTKVEIK
notes: as for B1
In the case of B2, the Kd (human CD47 [1]) is reported as 1.12 nM and the Kd (cynomolgus monkey CD47 [2]) is reported as 0.84 nM.

B3: anti-CD47 mAb B6H12.2 engineered with the human IgG2σ Fc (antibody, V domains shown)
VH: EVKLVESGGDLVKPGGSLKLSCAASGFTFSGYGMSWVRQTPDKRLEWVATITSGGTYTYYPDSVKGRFTISRDNAKNTLYLQIDSLKSEDTAIYFCARSLAGNAMDYWGQGTSVTVSS
VL: DIVMTQSPATLSVTPGDRVSLSCRASQTISDYLHWYQQKSHESPRLLIKFASQSISGIPSRFSGSGSGSDFTLSINSVEPEDVGVYYCQNGHGFPRTFGGGTKLEIK
notes: heavy chain of B6H12.2 with a human IgG2σ Fc; light chain of B6H12.2; also called IgG2σ B6H12.2
For B3, the Kd (human CD47 [3]) was 0.5 nM and the Kd (cynomolgus monkey CD47 [4]) was 0.6 nM.
